US7067495

Target: human IL-8 in L-CMV melanoma cell conditioned medium (human) (UniProt P10145)
Assay: cell-based or functional assay

Sequence of UniProt P10145 (P10145 23-99 limits assumed): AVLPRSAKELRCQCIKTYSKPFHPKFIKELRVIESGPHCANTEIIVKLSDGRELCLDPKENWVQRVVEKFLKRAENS

mouse anti-hIL-8 mAb (6214.11, R&D Systems) (antibody)
inhibition of PMNLs chemotaxis induced by L-CMV CCM: 30%
